In the experiment the target is SARS-CoV-2 recombinant spike HexaPro protein (SARS-CoV-2) (UniProt P0DTC2). Put plainly: SPR. Conditions: Fc fusion.

For FcACE2 dimer construct (Fc-linker-ACE2), the Kd is 0.43 nM.

The record behind these values is patent US20250367270A1.
